Usually stoichiometry N stands for the number of molecules, sites or subunits per partner or assembly.

The target of this assay is Vim93-302-Eb1 (vimentin residues 93 to 302 followed by the Eb1 capping motif) (UniProt P08670). Kind of assay: SEC-MALS; data not shown; HS conditions. A general note: In gel filtration, larger molecules generally elute earlier.

With “Vim93-302-Eb1 (vimentin residues 93 to 302 followed by the Eb1 capping motif) (from UniProt P08670 93-302) (domain or fragment)”, the stoichiometry N was 4.

Source of the values: article PMC10232555.
